The values that follow come from US20080234193A1 (published 2008).

In test [1] the target is activated factor IX (FIXa). The test is described as follows: cell-based or functional assay.
Test [2] concerns the target T1, native rVWF 133P1 (human, UniProt P04275 764-2813).
T1 construct: mature; Starting material for PEGylation; multimers of the mature monomer (about 260 kDa on reducing SDS-PAGE); also called unmodified rVWF
The test is described as follows: SPR (Biacore 3000): native rVWF 133P1 immobilized on CM5 chip, FVIII sample in flow, 1:1 Langmuir model. Background: SPR reads the build-up and loss of mass on a sensor chip optically.

A word on the Kd: it is the concentration at which binding is half-saturated. A high value points to weaker binding.

B1: FVIII control (mock preparation, not PEGylated) (other)
chain: ATRRYYLGAVELSWDYMQSDLGELPVDARFPPRVPKSFPFNTSVVYKKTLFVEFTDHLFNIAKPRPPWMGLLGPTIQAEVYDTVVITLKNMASHPVSLHAVGVSYWKASEGAEYDDQTSQREKEDDKVFPGGSHTYVWQVLKENGPMASDPLCLTYSYLSHVDLVKDLNSGLIGALLVCREGSLAKEKTQTLHKFILLFAVFDEGKSWHSETKNSLMQDRDAASARAWPKMHTVNGYVNRSLPGLIGCHRKSVYWHVIGMGTTPEVHSIFLEGHTFLVRNHRQASLEISPITFLTAQTLLMDLGQFLLFCHISSHQHDGMEAYVKVDSCPEEPQLRMKNNEEAEDYDDDLTDSEMDVVRFDDDNSPSFIQIRSVAKKHPKTWVHYIAAEEEDWDYAPLVLAPDDRSYKSQYLNNGPQRIGRKYKKVRFMAYTDETFKTREAIQHESGILGPLLYGEVGDTLLIIFKNQASRPYNIYPHGITDVRPLYSRRLPKGVKHLKDFPILPGEIFKYKWTVTVEDGPTKSDPRCLTRYYSSFVNMERDLASGLIGPLLICYKESVDQRGNQIMSDKRNVILFSVFDENRSWYLTENIQRFLPNPAGVQLEDPEFQASNIMHSINGYVFDSLQLSVCLHEVAYWYILSIGAQTDFLSVFFSGYTFKHKMVYEDTLTLFPFSGETVFMSMENPGLWILGCHNSDFRNRGMTALLKVSSCDKNTGDYYEDSYEDISAYLLSKNNAIEPRSFSQNSRHPSQNPPVLKRHQREITRTTLQSDQEEIDYDDTISVEMKKEDFDIYDEDENQSPRSFQKKTRHYFIAAVERLWDYGMSSSPHVLRNRAQSGSVPQFKKVVFQEFTDGSFTQPLYRGELNEHLGLLGPYIRAEVEDNIMVTFRNQASRPYSFYSSLISYEEDQRQGAEPRKNFVKPNETKTYFWKVQHHMAPTKDEFDCKAWAYFSDVDLEKDVHSGLIGPLLVCHTNTLNPAHGRQVTVQEFALFFTIFDETKSWYFTENMERNCRAPCNIQMEDPTFKENYRFHAINGYIMDTLPGLVMAQDQRIRWYLLSMGSNENIHSIHFSGHVFTVRKKEEYKMALYNLYPGVFETVEMLPSKAGIWRVECLIGEHLHAGMSTLFLVYSNKCQTPLGMASGHIRDFQITASGQYGQWAPKLARLHYSGSINAWSTKEPFSWIKVDLLAPMIIHGIKTQGARQKFSSLYISQFIIMYSLDGKKWQTYRGNSTGTLMVFFGNVDSSGIKHNIFNPPIIARYIRLHPTHYSIRSTLRMELMGCDLNSCSMPLGMESKAISDAQITASSYFTNMFATWSPSKARLHLQGRSNAWRPQVNNPKEWLQVDFQKTMKVTGVTTQGVKSLLTSMYVKEFLISSSQDGHQWTLFFQNGKVKVFQGNQDSFTPVVNSLDPPLLTRYLRIHPQSWVHQIALRMEVLGCEAQDLY
As to B1, in test [1], the lag phase (min), FIXa-cofactor activity after thrombin activation is 1.13 min; the lag phase (min), FIXa-cofactor activity without thrombin activation amounted to 1.8 min; the maximum FXa (nM), FIXa-cofactor activity after thrombin activation worked out at 33.7 nM; the maximum FXa (nM), FIXa-cofactor activity without thrombin activation amounted to 39.6 nM. Moreover, in test [1], the maximum rate (nM FXa/min), FIXa-cofactor activity after thrombin activation worked out at 9.79 nM FXa/min; the maximum rate (nM FXa/min), FIXa-cofactor activity without thrombin activation came out at 8.8 nM FXa/min; the t1/2 of maximum (min), FIXa-cofactor activity after thrombin activation was 2.85 min; the t1/2 of maximum (min), FIXa-cofactor activity without thrombin activation was found to be 4 min. The molecule also registered a Kd in test [2] of 0.55 nM.
